From paper PMC5730568 come the findings set out here.

The target of data set [1] is SRSF1-His6 (23 kDa) (UniProt Q07955). Briefly: EMSA. The conditions noted are these: MBNL1 filter binding: 250 mM NaCl, 15 mM KCl, 50 mM Tris-HCl pH 8.0, 0.05% Tween-20, 1 mM MgCl2, 37 C, 15 min, SRSF1 EMSA: 100 mM NaCl, 20 mM HEPES-Na pH 8.0 ….
Data set [2] relates to GST-MBNL1-His6 (truncated 41-kDa isoform). Briefly: filter binding. To be noted: MBNL1 filter binding: 250 mM NaCl, 15 mM KCl, 50 mM Tris-HCl pH 8.0, 0.05% Tween-20, 1 mM MgCl2, 37 C, 15 min, SRSF1 EMSA: 100 mM NaCl, 20 mM HEPES-Na pH 8.0 ….

Sequence of UniProt Q07955 (Q07955 1-186): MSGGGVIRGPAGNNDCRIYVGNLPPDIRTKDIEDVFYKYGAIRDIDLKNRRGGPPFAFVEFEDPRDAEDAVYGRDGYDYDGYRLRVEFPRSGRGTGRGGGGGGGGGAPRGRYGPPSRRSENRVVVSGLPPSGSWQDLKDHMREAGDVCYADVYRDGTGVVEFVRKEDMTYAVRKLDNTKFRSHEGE

In data set [1], “GGGUUGGUACUAAGAAGUGCCUUUCCUGACGUCUCUGCUGCUUGGAACCGCUUCUAGAGCAGCCUCUGCUUUUGCCUUGCUUGCUGCCAGCUAGACUGACGACAGCACAUCCGCCCUCCACCUCUAGCCCAGACACCCCAUUUCUACUUCUAAUCAGGAGAAAAGCUCUGAGUAUCUGCCAUUGCCCUAGG [Mbnl1-RNA]” came in with an equilibrium dissociation constant (Kd) of 13 nM.

With Atp2a1-RNA, the binding signal (fold suppression) in data set [2] (0.5 uM 2'OMe AON (S4)), in data set [2] (0.5 uM 2'OMe-PS AON (S5)) and in data set [2] (20 uM DNA AON (S120)) was 8 throughout.

For Nfix-RNA, the Kd in data set [1] (no AON) was 60 nM.

Mbnl1-RNA yielded a Kd in data set [1] (no AON) of 13 nM.
